# Source: publication PMC7666136 (2020)
# B1: eGFP-53BP1 (wild-type TP53-binding protein 1 tagged with enhanced green fluorescent protein) [not stated] / itself (parent complex)
# chain: MDPTGSQLDSDFSQQDTPCLIIEDSQPESQVLEDDSGSHFSMLSRHLPNLQTHKENPVLDVVSNPEQTAGEERGDGNSGFNEHLKENKVADPVDSSNLDTCGSISQVIEQLPQPNRTSSVLGMSVESAPAVEEEKGEELEQKEKEKEEDTSGNTTHSLGAEDTASSQLGFGVLELSQSQDVEENTVPYEVDKEQLQSVTTNSGYTRLSDVDANTAIKHEEQSNEDIPIAEQSSKDIPVTAQPSKDVHVVKEQNPPPARSEDMPFSPKASVAAMEAKEQLSAQELMESGLQIQKSPEPEVLSTQEDLFDQSNKTVSSDGCSTPSREEGGCSLASTPATTLHLLQLSGQRSLVQDSLSTNSSDLVAPSPDAFRSTPFIVPSSPTEQEGRQDKPMDTSVLSEEGGEPFQKKLQSGEPVELENPPLLPESTVSPQASTPISQSTPVFPPGSLPIPSQPQFSHDIFIPSPSLEEQSNDGKKDGDMHSSSLTVECSKTSEIEPKNSPEDLGLSLTGDSCKLMLSTSEYSQSPKMESLSSHRIDEDGENTQIEDTEPMSPVLNSKFVPAENDSILMNPAQDGEVQLSQNDDKTKGDDTDTRDDISILATGCKGREETVAEDVCIDLTCDSGSQAVPSPATRSEALSSVLDQEEAMEIKEHHPEEGSSGSEVEEIPETPCESQGEELKEENMESVPLHLSLTETQSQGLCLQKEMPKKECSEAMEVETSVISIDSPQKLAILDQELEHKEQEAWEEATSEDSSVVIVDVKEPSPRVDVSCEPLEGVEKCSDSQSWEDIAPEIEPCAENRLDTKEEKSVEYEGDLKSGTAETEPVEQDSSQPSLPLVRADDPLRLDQELQQPQTQEKTSNSLTEDSKMANAKQLSSDAEAQKLGKPSAHASQSFCESSSETPFHFTLPKEGDIIPPLTGATPPLIGHLKLEPKRHSTPIGISNYPESTIATSDVMSESMVETHDPILGSGKGDSGAAPDVDDKLCLRMKLVSPETEASEESLQFNLEKPATGERKNGSTAVAESVASPQKTMSVLSCICEARQENEARSEDPPTTPIRGNLLHFPSSQGEEEKEKLEGDHTIRQSQQPMKPISPVKDPVSPASQKMVIQGPSSPQGEAMVTDVLEDQKEGRSTNKENPSKALIERPSQNNIGIQTMECSLRVPETVSAATQTIKNVCEQGTSTVDQNFGKQDATVQTERGSGEKPVSAPGDDTESLHSQGEEEFDMPQPPHGHVLHRHMRTIREVRTLVTRVITDVYYVDGTEVERKVTEETEEPIVECQECETEVSPSQTGGSSGDLGDISSFSSKASSLHRTSSGTSLSAMHSSGSSGKGAGPLRGKTSGTEPADFALPSSRGGPGKLSPRKGVSQTGTPVCEEDGDAGLGIRQGGKAPVTPRGRGRRGRPPSRTTGTRETAVPGPLGIEDISPNLSPDDKSFSRVVPRVPDSTRRTDVGAGALRRSDSPEIPFQAAAGPSDGLDASSPGNSFVGLRVVAKWSSNGYFYSGKITRDVGAGKYKLLFDDGYECDVLGKDILLCDPIPLDTEVTALSEDEYFSAGVVKGHRKESGELYYSIEKEGQRKWYKRMAVILSLEQGNRLREQYGLGPYEAVTPLTKAADISLDNLVEGKRKRRSNVSSPATPTASSSSSTTPTRKITESPRASMGVLSGKRKLITSEEERSPAKRGRKSATVKPGAVGAGEFVSPCESGDNTGEPSALEEQRGPLPLNKTLFLGYAFLLTMATTSDKLASRSKLPDGPTGSSEEEEEFLEIPPFNKQYTESQLRAGAGYILEDFNEAQCNTAYQCLLIADQHCRTRKYFLCLASGIPCVSHVWVHDSCHANQLQNYRNYLLPAGYSLEEQRILDWQPRENPFQNLKVLLVSDQQQNFLELWSEILMTGGAASVKQHHSSAHNKDIALGVFDVVVTDPSCPASVLKCAEALQLPVVSQEWVIQCLIVGERIGFKQHPKYKHDYVSH
# Variants of: B1
# Experiment: Number and brightness (NB) analysis of fluorescence fluctuation spectroscopy in live DIvA cells; live DIvA cell nuclei, transient transfection, N = 10 cells, two biological replicates; value is the box median; parent: 0.22; read off a plot
row,Variant,screen value
1,"chain 1 Y1258A, chain 1 Y1259A",~0.06 fraction (pixels)

# Variants of: B1
# Experiment: Number and brightness (NB) analysis of fluorescence fluctuation spectroscopy in live DIvA cells; single representative cell ROI; value is the top of the teal (monomer) segment of the stacked bar, the rest of the bar being dimer (green); parent: 0.79; read off a plot
row,Variant,screen value
1,"chain 1 Y1258A, chain 1 Y1259A",~0.96 fraction (pixels)
